Test: soluble on expression in E. coli; label from the status in PepcDB or PDB records

Soluble on expression in E. coli, not soluble:
MGSDKIHHHHHHMAVITISREMGTGAYQIAREVAKRLKHTLVDGNKIAELAPRYGLDKELLKRVDEKPPVYITAEDRMHAAHLNTIEIIILDCVKQGNVILYGRGAQDLLSDVENILRIRFIAPFEHRVENFSEREWIDPDLARELIRKSDHQRGGFIHFYFNRDWNDSLGYDLTFNTERMSQSAIIESIIAAAKDSRLKEGEERLKQVIDETILAKKVETAFLKSGDIEYIHFRISVSGKVVSFSGHVHSEAEKREAIRLATAVEGVERVEGDLQVLNYKSHKG
MGSDKIHHHHHHMAVQFELYKTPMPKEKKNKTRYHARPVSFETVNTEKLAYRIHDRSTLRVSDIISTLEELKNEVAQCLLEGKKVHVDGLGFFQVTLSCEEEIRNPKDKRVHRVKLKAIKFKADKELKGELCHMKFQRSKIRPHSANLSEVEIDMKLTEYFAENQIITRKDFQYLCGMTQITAYRHIKRLMAEKKLQNKGTIYQPIYTPVPGNYRVSVDLKYKEQ
MGSDKIHHHHHHMCRWLAYTGNPIHLETVLFRAKHSLIDQSLHSELGATTTNGDGFGIGWYGDPDELPFRYRSVHPAWNDRNLREAARAIRSRMFVAHIRAATDTPVQETNCHPFRHGRWLFAHNGLIRDFHKLRRDLTMKVDPALFPTLEGSTDSELMFRLALTYGLEQTPLPALERMVGMVEETAARYRVDEPLNMTICATDGDRIIAVRYSSERQSRSLFHTTSFKHLHELYPHNPRIAEAGDDAFMVVSEPLVDLRGAWEEVAESTAIVAQGADVQQRPFNPRHT
MGSDKIHHHHHHMDDFVQSKARKDIFRLKAYVPGKPIEEVKRELGLDSIIKLASNENPLGTSPLALAALQEGLNKIHLYPDANAYELKQELASFWQVPAEQIVVGNGSDELLLLLAQTFINPGDEVIHAEQTFSEYESTSTLMGAHSITIPLKEYKYDLKAILEAINTRTKIIYLCNPNNPTGTIVEQEEIELFMQQVPGEILVVFDEAYGEYVDNPAFGSGLQYLREGRNIVLLKTFSKIYGLAGLRIGYVITTPAIAAALDRVREPFNVNFAAQIAAQAALRDIDFVEKSRQLNLQGKDYLYQELARLGLDYVKTNTNFIFLDTGRDCQLVFRELLQRGVIIRTGDIFGYPTFIRLTIGTMEENRRFIKSLQEVLEVIPL
MGSDKIHHHHHHMDDGELEEVFFDEIETIAGKIYLGRIEKIVPGLEAAFVKIGKGRNAFLKLSEINEAYRKTVLKGQEVKEGQKILVQVKKDASGKKGPQVTPQIGIADRFVVIFPFKKVIGVSRKIEDASERRRLRTIAFSLRKKYGVGVIMRTAAEGVDEEEIIKNFERALEKWNQVLQKFRRSRKPKLLYEEDPVEQIIKEKVNSKIDKLIYNDRSLLETLQKYLQNLPKKPEIEYVEGDLFEKFSVYERLKKLLSRTVPLKSGGNIVIDRTEALTVIDVNSESYTDAENQEELALKTNMEAIEEIVRQLILRNIGGIVVIDFIKQKDPKSYEKLLSRFKEVAKRDGTRIEIFGFTNLGLLEITRKRTTRPLDTLLFTRCPVCSGTGKVLSQKILLKRIREDLKKLKDFEEVTLKVHPNMSGYFKREDIKKLQKEFKVKLNLDYGWHDPNSYEIKAKTKKGGK
MGSDKIHHHHHHMDDYGYRALPDALGTTYGSYLSAKSASGRYTVYVGANDGMLHAFDAGMTADGSMDASGGLERFAYIPATALGHMGNLLLPSDPTNRTTEYEHRYYVDGPVVVGDANYAGSWKTVVVGAAGAGGRSIFALDVTNPSNFSTSSKLWEISDLDSSLSTAIRNNIGHVLGKPVIVPVKNAAGAVTWKAIFGNGYNSRNGKAVLFVVDIKTGAPAVTMIEATETGSTIAGSNGLGNIVVVDRWGGASQTDGVRDGYADTVYGADQKGAIWKFDLRSSAASVTVPFFTTRTSVESGQTYRQPITGGLVATAGDAGGVMLFFGTGSFSFESDPKDEAIQSLYGVNDTVRGAPLTTATRANLRGSTVVQDGDRTLSRAAAPANSQGWYVDLPAKERMVGSPSIASGIVFIPTYTPAVVSSGCKPDGANWLFGLDTRTGDGALMDARKGSPTGASFASRTAATPLTTSGNAPVKDVGVSAIPRLSPAESGSAPGGQACWMVVTAAGSGPLYIPYPCGRQSWRQVQ
MGSDKIHHHHHHMDELVDGERESGRAALGRTLRLLREKSGKTLGQLAGETSYDKSYLYRLETGERLSKRAVMEDLDRYHGSGDLLVRLWRDARKDVIKDKYKAFMELEATARVMWKFQLRVPGLLQTEDYARVVLSGLSRAQTTAGNGEEVEEQVAARVGRQEMLHRQPAPSVRVILDEGALRRRVPKEKVWADQLVHLVDVAELASVTLQVLPFTAGVHDLMNSDLTLMWQRVGEPVAYVEGNGFGELVDDPDKVLSYRLSYDLVRDAALTPAESTTFIKRLLEECRS

Reference: the DeepSol protein solubility set
